Substrate in this data set: OC[C@H]1O[C@@](CO)(O[C@H]2O[C@H](CO)[C@@H](O)[C@H](O)[C@H]2O)[C@@H](O)[C@@H]1O
The data set can be described thus: DNS assay of released fructose, Lineweaver-Burk. The format is biochemical, Calidithermus terrae. To be noted: 42.0 °C.

B1: (Calidithermus terrae) (protein)
chain: MFSTPLPAELRPLLERLLVQAESDLSGSDLETFSLRLERYLPDLHAGLAAVYPDVEGLLERLLPVLTAAHRARPAGLKRLDAHRLLAPDWFQRPEMIAYVAYTERFAGTLKGIEERLDYLEELGVRYLHLMPFLKPRPAPHDGGYAVMDYRAVREDLGSMDDLEALTAKLRARGIALCCDLVLNHVAQEHEWAVRARAGEARYQHYFHMFPDRTLPDEYEKTLPEVFPDFAPGNFTFDEASGKWVWTTFNRWQWDLNWANPAVFLEFADLILWLANRGVEVFRLDAIAFIWKRLGTNCQNQPEVHAITQALRAVARVVAPAVLFKAEAIVAPDDLIHYLGQGEHFGLVSDTAYHNSLMVQIWSSLASRDVRLMSEALRRFPVKPTNTAWNTYLRCHDDIGWAIADDDAARVGLSGEAHRRFLSDYYSGRFPTSPSRGLVFQENPRTGDRRISGSGASLAGLEQALEQNDPRQVHLSLERLLLGHAVVLGFGGIPLLYMGDELALLNDYSYLEEPEHAEDNRWVHRPHMDWDKAARAKADPASTEGRMYHGLLHLIRVRRATPHFHAAIEAQILEPRNPHVFGYVRRHPLGNLVALYNFSEEVQYYPAEVLWQQGLSLPHDRIGGQLVPIERHLVRLEPYARLWITDEV
Broadly, the Km is the concentration of substrate that gives half-maximal velocity. A word on the kcat: it is the maximal rate divided by the concentration of active sites. As to B1, the Km turned out to be 89.39 mM and the catalytic constant (kcat) came to 86.3995 s⁻¹.
